Laboratory results reported in patent US20140294819A1 (NVIP, published 2014).
Positions count from the first letter of the chain named. One block for each binder: values may come before it.

Tests used:
[1] = biological target: T1, murine CD20 cyclic (oxidised) peptide SEQ ID NO:6 (murine, disulphide bond between the two cysteine residues; biotinylated); experiment: ELISA, purified recombinant antibody on cyclic CD20 peptide
T1 construct: also called M20; mouse CD20 peptide
T1 peptide: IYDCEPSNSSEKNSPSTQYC
Text: (§1) The RA2 and RF2 variable heavy and light chain sequences (SEQ ID NO:23-26) were rebuilt as IgG2a/kappa antibodies by oligonucleotide-based gene synthesis, cloned into pcDNA3.3 vectors and co-expressed in appropriate pairs in CHO cells. The supernatant expressed antibodies were purified by Protein A chromatography and tested for binding by CD20 peptide ELISA (FIG. 11). Both purified recombinant forms of mouse RA2 and RF2 bound strongly to cyclic canine and feline CD20 peptides, and also to mouse and human CD20 peptides (the binding of RA2 to human CD20 peptide was more pronounced than with the corresponding hybridoma supernatant in FIG. 9).

[2] = biological target: T2, feline CD20 cyclised peptide SEQ ID NO:4 (feline, cyclised by a disulphide bond between the two cysteine residues); experiment: as above
T2 construct: also called feline CD20 peptide
T2 peptide: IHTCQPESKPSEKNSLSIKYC
Text: as §1

[3] = biological target: T3, canine CD20 cyclic (oxidised, disulphide-bonded) peptide SEQ ID NO:2 (canine, disulphide bond between the two cysteine residues (corresponding to positions 167 and 183); N-terminal biotin in the streptavidin-plate assays); experiment: as above
T3 construct: Chemically synthesised and oxidised; also called C20; caCD20 peptide
T3 peptide: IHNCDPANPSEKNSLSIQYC
Text: as §1

[4] = biological target: T4, human CD20 cyclic (oxidised) peptide SEQ ID NO:3 (human, disulphide bond between the two cysteine residues; biotinylated); experiment: as above
T4 construct: also called H20; human CD20 cyclic peptide
T4 peptide: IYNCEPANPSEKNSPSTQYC
Text: as §1

[5] = biological target: T1, murine CD20 cyclic (oxidised) peptide …; experiment: ELISA, hybridoma antibody on cyclic CD20 peptide
Text: (§2) Using a combination of cyclic human (SEQ ID NO:3) and canine (SEQ ID NO:2) CD20 peptides, monoclonal antibodies that would bind both human and canine peptides were screened for using conventional hybridoma screening of mice previously immunised with the cyclic canine CD20 peptide of FIG. 1, coupled to diphtheria toxoid at the amino terminus as a source of T-cell help. Two antibody hybridomas were selected, RA2 and RF2 and tested for binding to these as well as to murine (SEQ ID NO:6) and feline (SEQ ID NO:4) CD20 peptides. RA2 and RF2 bound strongly to canine CD20 and RF2 bound strongly to human CD20 peptide whereas RA2 binds more weakly. Unexpectedly RA2 and RF2 bound strongly to feline and also murine CD20 peptides.

[6] = biological target: T2, feline CD20 cyclised peptide SEQ ID NO:4; experiment: ELISA, hybridoma antibody on cyclic CD20 peptide
Text: as §2

[7] = biological target: T3, canine CD20 cyclic (oxidised, …); experiment: ELISA, hybridoma antibody on cyclic CD20 peptide
Text: as §2

[8] = biological target: T4, human CD20 cyclic (oxidised) peptide …; experiment: ELISA, hybridoma antibody on cyclic CD20 peptide
Text: as §2

[9] = biological target: T1, murine CD20 cyclic (oxidised) peptide …; experiment: ELISA, purified antibody on cyclic CD20 peptide
Protocol: (§3) The purified antibodies shown in FIG. 15 were tested for binding to cyclic CD20 peptides from different species by ELISA as above.

[10] = biological target: T2, feline CD20 cyclised peptide SEQ ID NO:4; experiment: ELISA, purified antibody on cyclic CD20 peptide
Protocol: as §3

[11] = biological target: T3, canine CD20 cyclic (oxidised, …); experiment: ELISA, purified antibody on cyclic CD20 peptide
Protocol: as §3

[12] = biological target: T4, human CD20 cyclic (oxidised) peptide …; experiment: ELISA, purified antibody on cyclic CD20 peptide
Protocol: as §3

[13] = biological target: T1, murine CD20 cyclic (oxidised) peptide …; experiment: ELISA on cyclised CD20 peptide
[14] = biological target: T2, feline CD20 cyclised peptide SEQ ID NO:4; experiment: ELISA on cyclised CD20 peptide
[15] = biological target: T4, human CD20 cyclic (oxidised) peptide …; experiment: ELISA on cyclised CD20 peptide

binding result [1]: binds
binding result [2]: binds
binding result [3]: binds
binding result [4]: binds
B1: recombinant mouse RA2 (IgG2a/kappa) (antibody)
heavy: QVQLKQSGPGLVPPSQSLSITCTVSGFSLTNYGVHWVRQSPGKGLEWLGVIWSGGTTDYNAAFISRLSISKDNSKSQVFFKMNSLQADDTAIYYCARGPRKFYYYGMDYWGQGTSVTVSSAKTTAPSVYPLAPVCGDTTGSSVTLGCLVKGYFPEPVTLTWNSGSLSSGVHTFPAVLQSDLYTLSSSVTVTSSTWPSQSITCNVAHPASSTKVDKKIEPRGPTIKPCPPCKCPAPNLLGGPSVFIFPPKIKDVLMISLSPIVTCVVVDVSEDDPDVQISWFVNNVEVHTAQTQTHREDYNSTLRVVSALPIQHQDWMSGKEFKCKVNNKDLPAPIERTISKPKGSVRAPQVYVLPPPEEEMTKKQVTLTCMVTDFMPEDIYVEWTNNGKTELNYKNTEPVLDSDGSYFMYSKLRVEKKNWVERNSYSCSVVHEGLHNHHTTKSFSRTPGK
light: DVLMTQTPLSLPVSLGDQASISCRSSQSIVHSNGNTYLEWYLQKPGQSPKLLIYKVSNRFSGVPDRFSGSGSGTDFTLKISRVEAGDLGVYYCFQGLHVPLTFGAGTRLELKRADAAPTVSIFPPSSEQLTSGGASVVCFLNNFYPKDINVKWKIDGSERQNGVLNSWTDQDSKDSTYSMSSTLTLTKDEYERHNSYTCEATHKTSTSPIVKSFNRNEC
notes: also called muRA2

binding result [1]: binds
binding result [2]: binds
binding result [3]: binds
binding result [4]: binds
B2: recombinant mouse RF2 (IgG2a/kappa) (antibody)
heavy: B1 heavy with V24I, N31S, K43W, T56S, T57I, F80I, Y105F
light: B1 light with L3V, S28N, L38V, G86E, L97S, R108K
notes: also called muRF2; mouse IgG2a variant of RF2

binding result [5]: binds
binding result [6]: binds
binding result [7]: binds
binding result [8]: binds
B3: RA2 murine monoclonal antibody (hybridoma) (antibody, V domains shown)
VH: QVQLKQSGPGLVPPSQSLSITCTVSGFSLTNYGVHWVRQSPGKGLEWLGVIWSGGTTDYNAAFISRLSISKDNSKSQVFFKMNSLQADDTAIYYCARGPRKFYYYGMDYWGQGTSVTVSS
VL: DVLMTQTPLSLPVSLGDQASISCRSSQSIVHSNGNTYLEWYLQKPGQSPKLLIYKVSNRFSGVPDRFSGSGSGTDFTLKISRVEAGDLGVYYCFQGLHVPLTFGAGTRLELK
notes: Hybridoma supernatant; also called muRA2

binding result [5]: binds
binding result [6]: binds
binding result [7]: binds
binding result [8]: binds
B4: RF2 murine monoclonal antibody (hybridoma) (antibody, V domains shown)
VH: B3 VH with V24I, N31S, K43W, T56S, T57I, F80I, Y105F
VL: B3 VL with L3V, S28N, L38V, G86E, L97S, R108K
notes: Hybridoma supernatant; also called muRF2

binding result [9]: binds
binding result [10]: binds
binding result [11]: binds
binding result [12]: binds
B5: caninised RA2, HCB isotype (antibody)
heavy: EVQLVQSGGGLVKPTESLTISCVVSGFSLTNYGVHWVRQSPGKGLEWLGVIWSGGTTDYNAAFISRLSISKDNSKSTVFLRMNSLRADDTAIYYCARGPRKFYYYGMDYWGQGTSVTVSSASTTAPSVFPLAPSCGSTSGSTVALACLVSGYFPEPVTVSWNSGSLTSGVHTFPSVLQSSGLYSLSSMVTVPSSRWPSETFTCNVAHPASKTKVDKPVPKRENGRVPRPPDCPKCPAPEMLGGPSVFIFPPKPKDTLLIARTPEVTCVVVDLDPEDPEVQISWFVDGKQMQTAKTQPREEQFNGTYRVVSVLPIGHQDWLKGKQFTCKVNNKALPSPIERTISKARGQAHQPSVYVLPPSREELSKNTVSLTCLIKDFFPPDIDVEWQSNGQQEPESKYRTTPPQLDEDGSYFLYSKLSVDKSRWQRGDTFICAVMHEALHNHYTQESLSHSPGK
light: DIVMTQTPLSLSVSQEEEASISCRSSQSIVHSNGNTYLEWYLQKPGQSPKLLIYKVSNRFSGVPDRFSGSGSGTDFTLKISRVEAGDAGVYYCFQGLHVPLTFGAGTKLELKRNDAQPAVYLFQPSPDQLHTGSASVVCLLNSFYPKDINVKWKVDGVIQDTGIQESVTEQDKDSTYSLSSTLTMSSTEYLSHELYSCEITHKSLPSTLIKSFQRSECQRVD
notes: also called caRA2-B

binding result [9]: binds
binding result [10]: binds
binding result [11]: binds
binding result [12]: binds
B6: caninised RA2, HCC isotype (antibody)
heavy: EVQLVQSGGGLVKPTESLTISCVVSGFSLTNYGVHWVRQSPGKGLEWLGVIWSGGTTDYNAAFISRLSISKDNSKSTVFLRMNSLRADDTAIYYCARGPRKFYYYGMDYWGQGTSVTVSSASTTAPSVFPLAPSCGSQSGSTVALACLVSGYIPEPVTVSWNSVSLTSGVHTFPSVLQSSGLYSLSSMVTVPSSRWPSETFTCNVAHPATNTKVDKPVAKECECKCNCNNCPCPGCGLLGGPSVFIFPPKPKDILVTARTPTVTCVVVDLDPENPEVQISWFVDSKQVQTANTQPREEQSNGTYRVVSVLPIGHQDWLSGKQFKCKVNNKALPSPIEEIISKTPGQAHQPNVYVLPPSRDEMSKNTVTLTCLVKDFFPPEIDVEWQSNGQQEPESKYRMTPPQLDEDGSYFLYSKLSVDKSRWQRGDTFICAVMHEALHNHYTQISLSHSPGK
light: B5 light
notes: See note of m19; also called caRA2-C

binding result [9]: binds
binding result [10]: binds
binding result [11]: binds
binding result [12]: binds
B7: chimeric mouse-canine RA2, HCB isotype (antibody)
heavy: QVQLKQSGPGLVPPSQSLSITCTVSGFSLTNYGVHWVRQSPGKGLEWLGVIWSGGTTDYNAAFISRLSISKDNSKSQVFFKMNSLQADDTAIYYCARGPRKFYYYGMDYWGQGTSVTVSSASTTAPSVFPLAPSCGSTSGSTVALACLVSGYFPEPVTVSWNSGSLTSGVHTFPSVLQSSGLYSLSSMVTVPSSRWPSETFTCNVAHPASKTKVDKPVPKRENGRVPRPPDCPKCPAPEMLGGPSVFIFPPKPKDTLLIARTPEVTCVVVDLDPEDPEVQISWFVDGKQMQTAKTQPREEQFNGTYRVVSVLPIGHQDWLKGKQFTCKVNNKALPSPIERTISKARGQAHQPSVYVLPPSREELSKNTVSLTCLIKDFFPPDIDVEWQSNGQQEPESKYRTTPPQLDEDGSYFLYSKLSVDKSRWQRGDTFICAVMHEALHNHYTQESLSHSPGK
light: B5 light with I2V, V3L, S12P, Q15L, E16G, E17D, E18Q, A88L, K108R
notes: also called chiRA2-B; chimeric RA2

binding result [11]: binds
binding result [13]: binds
binding result [14]: binds
binding result [15]: binds
B8: caninised RF2, HCB isotype (antibody)
heavy: B5 heavy with V24I, N31S, T56S, T57I, L80I, Y105F
light: B5 light with S28N, L38V, G86E, L97S
notes: also called caRF2-B

binding result [9]: binds
binding result [10]: binds
binding result [11]: binds
binding result [12]: binds
B9: chimeric mouse-canine RF2, HCB isotype (antibody)
heavy: B7 heavy with V24I, N31S, K43W, T56S, T57I, F80I, Y105F
light: DVVMTQTPLSLPVSLGDQASISCRSSQNIVHSNGNTYVEWYLQKPGQSPKLLIYKVSNRFSGVPDRFSGSGSGTDFTLKISRVEAEDLGVYYCFQGSHVPLTFGAGTKLELKRNDAQPAVYLFQPSPDQLHTGSASVVCLLNSFYPKDINVKWKVDGVIQDTGIQESVTEQDKDSTYSLSSTLTMSSTEYLSHELYSCEITHKSLPSTLIKSFQRSECQRVD
notes: also called chiRF2-B; chimeric RF2
